Test results as given in PMC5360445, “SMOC can act as both an antagonist and an expander of BMP signaling” (eLife, 2017).

Legend:
[1] = molecular target: XSMOC-1∆EC (XSMOC-1 lacking the EC domain) (Xenopus); experiment: SEC; HiLoad Superdex-200 PG, 20 mM Tris/HCl pH 7.5, 300 mM NaCl, 2 mM CaCl2, 10% glycerol; proteins refolded in the presence of 2 mM CaCl2; molecular weights calculated from elution
[2] = molecular target: recombinant mature XSMOC-1 (Xenopus SMOC-1) (Xenopus); experiment: not stated; data not shown; in the presence of 50 mM EDTA and 1 mM nitriloacetic acid
[3] = molecular target: recombinant mature XSMOC-1 (Xenopus SMOC-1) (Xenopus); experiment: SEC; HiLoad Superdex-200 PG, 20 mM Tris/HCl pH 7.5, 300 mM NaCl, 2 mM CaCl2, 10% glycerol; proteins refolded in the presence of 2 mM CaCl2; molecular weights calculated from elution
[4] = molecular target: recombinant mature XSMOC-1 (Xenopus SMOC-1) (Xenopus); experiment: SEC; XSMOC-1 refolded in the presence of 2 mM CaCl2, then dialysed in the presence of 10.5 mM EDTA
[5] = molecular target: the molecule itself; experiment: SEC; HiLoad Superdex-200 PG, 20 mM Tris/HCl pH 7.5, 300 mM NaCl, 2 mM CaCl2, 10% glycerol; proteins refolded in the presence of 2 mM CaCl2; molecular weights calculated from elution

XSMOC-1∆EC (XSMOC-1 lacking the EC domain) (domain or fragment)
stoichiometry N [1]: 2

recombinant mature XSMOC-1 (Xenopus SMOC-1) (natural protein)
stoichiometry N [2]: 2
stoichiometry N [3]: 2
stoichiometry N [4]: 2

B1: human SMOC-1 (natural protein, UniProt Q9H4F8 27-434, looked up)
chain: HRTTGPRFLISDRDPQCNLHCSRTQPKPICASDGRSYESMCEYQRAKCRDPTLGVVHRGRCKDAGQSKCRLERAQALEQAKKPQEAVFVPECGEDGSFTQVQCHTYTGYCWCVTPDGKPISGSSVQNKTPVCSGSVTDKPLSQGNSGRKDDGSKPTPTMETQPVFDGDEITAPTLWIKHLVIKDSKLNNTNIRNSEKVYSCDQERQSALEEAQQNPREGIVIPECAPGGLYKPVQCHQSTGYCWCVLVDTGRPLPGTSTRYVMPSCESDARAKTTEADDPFKDRELPGCPEGKKMEFITSLLDALTTDMVQAINSAAPTGGGRFSEPDPSHTLEERVVHWYFSQLDSNSSNDINKREMKPFKRYVKKKAKPKKCARRFTDYCDLNKDKVISLPELKGCLGVSKEGRLV
notes: human SMOC-1, construct pET28-SMOC-1-HT of Novinec et al., 2008; expected monomeric size 46.6 kDa; probably the protein without its signal peptide; also called hSMOC-1; pET28-SMOC-1-HT
stoichiometry N [5]: 2
